Results on 4 molecules are retold here after patent publication US20110311550A1 (Scripps Research, published 2011).

The target in one experiment is H77 E1E2 mutant L413A (HCV isolate H77, UniProt P27958 192-383; P27958 384-746). The experiment is described as follows: ELISA, alanine mutant E1E2. (ELISA stands for enzyme-linked immunosorbent assay.)
The target in another experiment is H77 E1E2 mutant N415A (HCV isolate H77, UniProt P27958 192-383; P27958 384-746). Briefly: ELISA, alanine mutant E1E2.
The target of the next experiment is H77 E1E2 mutant N417A (HCV isolate H77, UniProt P27958 192-383; P27958 384-746). Briefly: ELISA, alanine mutant E1E2.
Another experiment concerns the target H77 E1E2 mutant S419A (HCV isolate H77, UniProt P27958 192-383; P27958 384-746). The experiment is described as follows: ELISA, alanine mutant E1E2.
The target of another experiment is H77 E1E2 mutant W420A (HCV isolate H77, UniProt P27958 192-383; P27958 384-746). The experiment is described as follows: ELISA, alanine mutant E1E2.
The next experiment concerns the target H77 E1E2 mutant I422A (HCV isolate H77, UniProt P27958 192-383; P27958 384-746). Briefly: ELISA, alanine mutant E1E2.
For a further experiment, the target named is H77 E1E2 mutant N423A (HCV isolate H77, UniProt P27958 192-383; P27958 384-746). The experiment is described as follows: ELISA, alanine mutant E1E2.
The target in a further experiment is H77 E1E2 mutant R483A (HCV isolate H77, UniProt P27958 192-383; P27958 384-746). The experiment is described as follows: ELISA, alanine mutant E1E2.
Another experiment deals with H77 E1E2 mutant H488A (HCV isolate H77, UniProt P27958 192-383; P27958 384-746). Briefly: ELISA, alanine mutant E1E2.
The next experiment deals with H77 E1E2 mutant Y489A (HCV isolate H77, UniProt P27958 192-383; P27958 384-746). Briefly: ELISA, alanine mutant E1E2.
A further experiment deals with H77 E1E2 mutant P491A (HCV isolate H77, UniProt P27958 192-383; P27958 384-746). The experiment is described as follows: ELISA, alanine mutant E1E2.
The target of the next experiment is H77 E1E2 mutant P525A (HCV isolate H77, UniProt P27958 192-383; P27958 384-746). The experiment is described as follows: ELISA, alanine mutant E1E2.
The target in a further experiment is H77 E1E2 mutant T526A (HCV isolate H77, UniProt P27958 192-383; P27958 384-746). The experiment is described as follows: ELISA, alanine mutant E1E2.
A further experiment has as its target H77 E1E2 mutant W529A (HCV isolate H77, UniProt P27958 192-383; P27958 384-746). The experiment is described as follows: ELISA, alanine mutant E1E2.
A further experiment concerns the target H77 E1E2 mutant V538A (HCV isolate H77, UniProt P27958 192-383; P27958 384-746). The experiment is described as follows: ELISA, alanine mutant E1E2.
In another experiment the target is H77 E1E2 mutant R543A (HCV isolate H77, UniProt P27958 192-383; P27958 384-746). Briefly: ELISA, alanine mutant E1E2.
For another experiment, the target named is H77 E1E2 mutant P544A (HCV isolate H77, UniProt P27958 192-383; P27958 384-746). Briefly: ELISA, alanine mutant E1E2.
Another experiment has as its target H77 E1E2 mutant P545A (HCV isolate H77, UniProt P27958 192-383; P27958 384-746). Briefly: ELISA, alanine mutant E1E2.
A further experiment addresses H77 E1E2 mutant F550A (HCV isolate H77, UniProt P27958 192-383; P27958 384-746). Briefly: ELISA, alanine mutant E1E2.
For experiment [1], the target named is T1, vaccinia-expressed E1E2 complex, isolate HCV-1 (genotype 1a) (hepatitis C virus, isolate HCV-1, UniProt P26664 192-383; P26664 384-746). Briefly: competition ELISA on HCV-1 E1E2; competitor m23 (H53).
For experiment [2], the target named is T1, vaccinia-expressed E1E2 complex, …. Briefly: competition ELISA on HCV-1 E1E2; competitor m33 (9/75).
For experiment [3], the target named is T2, E1E2 complex of HCV isolate H77 (genotype 1a), wild type (HCV isolate H77, UniProt P27958 192-383; P27958 384-746). Briefly: competition ELISA on H77 E1E2; competitor m39 (Fab N3).
The target in experiment [4] is T2, E1E2 complex of HCV isolate H77 …. Briefly: competition ELISA on H77 E1E2; competitor m40 (Fab N4).
For experiment [5] the target is unchanged. Briefly: competition ELISA on H77 E1E2; competitor m45 (Fab P3).
Experiment [6] shares this target. The experiment is described as follows: competition ELISA on H77 E1E2; competitor m46 (Fab P4).
Experiment [7] shares this target. Briefly: competition ELISA on H77 E1E2; competitor m43 (Fab P1a).

B1: MAb AR1A (antibody, V domains shown)
VH: LEQSGAEVKKPGSSVKVSCRASGSPYSSYTITWVRQAPGQGLEWMGGIILMTGKANYAQKFQGRVTITADRATATAYMEMSSLTSDDTAIYYCARDPYVYAGDDVRSLSRWGQGTPVIVSS
VL: not shown
notes: also called IgG1 of Fab B2
On to B1, for which the “binding vs wild-type E1E2” value with H77 E1E2 mutant L413A is 103%; in the experiment with H77 E1E2 mutant N415A, 106%; with H77 E1E2 mutant N417A it was 17%; in the experiment with H77 E1E2 mutant S419A, 84%; with H77 E1E2 mutant W420A it was 141%; in the experiment with H77 E1E2 mutant I422A it was 106%. Besides, the “binding vs wild-type E1E2” value is 79% in the experiment with H77 E1E2 mutant N423A; 64% with H77 E1E2 mutant R483A; 91% with H77 E1E2 mutant H488A; 189% in the experiment with H77 E1E2 mutant Y489A; 119% with H77 E1E2 mutant P491A; 101% with H77 E1E2 mutant P525A. The “binding vs wild-type E1E2” value is 81% in the experiment with H77 E1E2 mutant T526A; 367% with H77 E1E2 mutant W529A; 17% in the experiment with H77 E1E2 mutant V538A; 239% with H77 E1E2 mutant R543A; 69% with H77 E1E2 mutant P544A; 74% with H77 E1E2 mutant P545A. In addition, in the experiment with H77 E1E2 mutant F550A, the “binding vs wild-type E1E2” value was 379%. Besides, the “% residual binding” value in experiment [1] is 20%; in experiment [2], 24%; in experiment [3], 71%; in [4], 94%; in experiment [5] it was 85%; in experiment [6], 85%. For the same molecule, the “% residual binding” value in experiment [7] was 88%.

B2: MAb AR3D (antibody, V domains shown)
VH: LEQSGAEVKKPGSSVKVSCKASGDTFRSYVITWARQAPGQGLEWMGAIIPFFGTTNLAQKFQGRVTITADESTKTVYMDLSSLRSDDTAVYYCAKAGDLSVGGVLAGGVPHLRHFDPWGQGTLVTVSS
VL: ELTQSPGTLSLSPGERATLSCRAGQTVASNSLAWYQHKPGQAPRLLIYGASIRASGIPDRFSGSGSGTDFTLTISRLEPEDFAVYYCQQYGLSSTFGQGTRLEIKR
notes: also called IgG1 of Fab L4
For the molecule B2, the “binding vs wild-type E1E2” value in the experiment with H77 E1E2 mutant L413A amounted to 83%; with H77 E1E2 mutant N415A, 131%; in the experiment with H77 E1E2 mutant N417A, 74%; with H77 E1E2 mutant S419A, 73%; in the experiment with H77 E1E2 mutant W420A it was 68%; with H77 E1E2 mutant I422A, 113%. Also, the “binding vs wild-type E1E2” value was found to be 65% in the experiment with H77 E1E2 mutant N423A; 151% with H77 E1E2 mutant R483A; 123% with H77 E1E2 mutant H488A; 113% in the experiment with H77 E1E2 mutant Y489A; 204% in the experiment with H77 E1E2 mutant P491A; 53% with H77 E1E2 mutant P525A. In addition, the “binding vs wild-type E1E2” value with H77 E1E2 mutant T526A was 135%; with H77 E1E2 mutant W529A, 88%; with H77 E1E2 mutant V538A, 95%; in the experiment with H77 E1E2 mutant R543A, 276%; with H77 E1E2 mutant P544A it was 318%; with H77 E1E2 mutant P545A it was 307%. Also, the “binding vs wild-type E1E2” value in the experiment with H77 E1E2 mutant F550A was found to be 320%. In addition, the “% residual binding” value in [1] is 74%; in [2], 53%; in experiment [4] it was 92%; in experiment [5] it was 118%; in [6], 145%; in experiment [7], 138%.

B3: MAb AR3C (antibody, V domains shown)
VH: LEQSGAEVKKPGSSVKVSCETSGGTLDNYALNWVRQAPGQGLEWIGGVVPLFGTTRNAQKFQGRVTISDDKSTGTGHMELRSLRSEDTAVYYCVRSVTPRYCGGGFCYGEFDYWGQGTLVTVSS
VL: ELTQSPATLSVSPGERATLSCRASQSVSSNLAWYQQKPGQAPRLLIYGASTRATGIPARFSGSGSGTEFTLTVSRLEPEDSAVYFCQQYYRSPLTFGGGTKVEIKR
notes: also called IgG1 of Fab H3
As to B3, the “% residual binding” value in experiment [1] amounted to 77%; in experiment [2], 51%; in [3], 92%; in experiment [4], 112%; in [5] it was 124%; in experiment [6] it was 155%. Moreover, the “% residual binding” value in experiment [7] was 145%.

B4: MAb AR1B (antibody, V domains shown)
VH: LESGGGLVQPGGSLRLSCEASGYYFSSFAMSWVRQTPGKGLEWVSSIAGGTLGRTSYRDSVKGRFTISRDNSKNTVFLHMNNLRPEDTAVYYCAKDPLLFAGGPNWFDHWGQGTLVTVSS
VL: not shown
notes: also called IgG1 of Fab D1
B4: the “binding vs wild-type E1E2” value with H77 E1E2 mutant L413A turned out to be 109%; with H77 E1E2 mutant N415A, 131%; with H77 E1E2 mutant N417A, 54%; with H77 E1E2 mutant S419A, 118%; with H77 E1E2 mutant W420A, 41%; with H77 E1E2 mutant I422A, 58%. For the same molecule, the “binding vs wild-type E1E2” value worked out at 38% in the experiment with H77 E1E2 mutant N423A; 32% with H77 E1E2 mutant R483A; 63% with H77 E1E2 mutant H488A; 52% with H77 E1E2 mutant Y489A; 118% with H77 E1E2 mutant P491A; 33% with H77 E1E2 mutant P525A. Also, the “binding vs wild-type E1E2” value turned out to be 48% with H77 E1E2 mutant T526A; 94% with H77 E1E2 mutant W529A; 52% in the experiment with H77 E1E2 mutant V538A; 135% in the experiment with H77 E1E2 mutant R543A; 16% with H77 E1E2 mutant P544A; 20% in the experiment with H77 E1E2 mutant P545A. Also, the “binding vs wild-type E1E2” value with H77 E1E2 mutant F550A came to 257%. The “% residual binding” value in [1] worked out at 12%; in experiment [2], 38%; in [3], 92%; in experiment [4], 95%; in [5], 93%; in experiment [6] it was 95%. Besides, the “% residual binding” value in [7] came out at 100%.
